Reference: article PMC7494283

Target: SARS-CoV-2 prefusion-stabilized S ectodomain trimer (SARS-CoV-2 | not stated) (UniProt P0DTC2)

Question: With S2X35 mAb (IgG1) (antibody) as the substance, how does the SARS-CoV-2 pseudovirus neutralization IC50; hinders ACE2 binding read?
Answer: 0.5 µg/mL
